From publication PMC9430884

Tests used:
[1] = target: Gal4BD-CckAΔTM (Rhodobacter sphaeroides)
[2] = target: CckA_(L391F) (two-hybrid fusion) (Rhodobacter sphaeroides); conditions: scale: times higher concentration of Osp than for wild-type CckA

Question: Which results are given for Gal4AD-Osp (natural protein)?
Answer: inhibition of CckA autophosphorylation with [γ-32P]ATP, purified proteins (2.5 μM His6-CckA cytoplasmic domain, Osp-His6 0 to 10 μM, 30 min) [1]: 50%; inhibition of CckA L391F autophosphorylation with [γ-32P]ATP, purified proteins (2.5 μM His6-CckA L391F cytoplasmic domain, Osp-His6 0 to 10 μM, 30 min), against wild-type CckA [2]: 4
